Source: US20150031601A1

B1: SEQ ID NO: 281 (peptide)
peptide: GFCWNVCVYRNGVRVCHRRCG
B2: SEQ ID NO: 289 (peptide)
peptide: GFCWNVCVYRNGVRVCHRRCR
B3: SEQ ID NO: 20 (peptide)
peptide: GFCWYWCVYRNGVRVCYRRCN
B4: SEQ ID NO: 284 (peptide)
peptide: GFCWNVCVYRNGVRVCHRRCK
B5: SEQ ID NO: 282 (peptide)
peptide: GFCWNVCVYRNGVRVCHRRCH
B6: SEQ ID NO: 313 (peptide)
peptide: GFCWRVCVYRNGARKCYRRCN
B7: SEQ ID NO: 267 (peptide)
peptide: GFCWNWCVYRNGVRVCHRRCN
B8: SEQ ID NO: 308 (peptide)
peptide: GFCWNVCVRRNGVRVCHRRCN
B9: SEQ ID NO: 272 (peptide)
peptide: GFCWNVCFYRNGVRVCHRRCN
B10: SEQ ID NO: 263 (peptide)
peptide: GFCWNLCVYRNGVRVCHRRCN
B11: SEQ ID NO: 299 (peptide)
peptide: GFCWNVCVARNGVRVCHRRCN
B12: SEQ ID NO: 275 (peptide)
peptide: GFCWNVCLYRNGVRVCHRRCN
B13: SEQ ID NO: 291 (peptide)
peptide: GFCWNVCVYRNGVRVCHRRCW
B14: SEQ ID NO: 315 (peptide)
peptide: GFCWRVCVYRNGVRKCHRRCN
B15: SEQ ID NO: 305 (peptide)
peptide: GFCWNVCVKRNGVRVCHRRCN
B16: SEQ ID NO: 303 (peptide)
peptide: GFCWNVCVHRNGVRVCHRRCN

Biological target: serum proteins
Assay: 90% serum, 30 kDa ultrafiltration, HPLC

| Binder | Protein binding (%) |
| --- | --- |
| B1 | 66% |
| B2 | 83% |
| B3 | 99% |
| B4 | 72% |
| B5 | 82% |
| B6 | 98% |
| B7 | 85% |
| B8 | 94% |
| B9 | 74% |
| B10 | 80% |
| B11 | 74% |
| B12 | 80% |
| B13 | 99% |
| B14 | 93% |
| B15 | 76% |
| B16 | 43% |
